The values that follow come from patent US20200247894A1 (Regeneron, published 2020).

Experiment [1] concerns the target T1, Human IL2Rγ extracellular domain expressed with a C-terminal myc-myc-hexahistidine tag (human).
T1 construct: also called hIL-2Rg-MMH; hIL-2RG-MMH
T1 chain: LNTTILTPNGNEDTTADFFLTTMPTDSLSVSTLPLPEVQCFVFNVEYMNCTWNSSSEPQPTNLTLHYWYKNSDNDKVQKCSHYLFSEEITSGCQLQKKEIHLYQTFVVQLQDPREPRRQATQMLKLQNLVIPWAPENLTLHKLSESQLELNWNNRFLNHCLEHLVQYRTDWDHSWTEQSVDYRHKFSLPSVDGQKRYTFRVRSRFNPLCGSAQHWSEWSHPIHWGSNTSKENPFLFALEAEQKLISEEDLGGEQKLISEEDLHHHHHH
Kind of experiment: SPR, captured mAb, 37C, dissociation pH 6.0. A digest of the protocol: (§1)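 Read-out is the dissociation rate constant (kd), derived by 1:1 fitting of real-time binding curves. The antibodies, formatted as human IgG4 Fc, sat on an anti-human Fc capture surface. Bound receptor was washed off in PBS-T for 6 minutes.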

The target of experiment [2] is T1, Human IL2Rγ extracellular domain …. Kind of experiment: SPR, captured mAb, 25C, dissociation pH 7.4. The method, boiled down: as §1
A general note: In SPR one partner is held on a chip, and binding of the other changes the refractive index at the surface.

In experiment [3] the target is T2, Macaca fascicularis IL2Rγ extracellular domain expressed with a C-terminal myc-myc-hexahistidine tag (Macaca fascicularis).
T2 construct: also called mfIL-2Rg-MMH; mfIL-2RG-MMH
T2 chain: T1 chain with T14A, A16T, T22S, H141R, T228S
In words: SPR, captured mAb, 25C, dissociation pH 7.4. The method, boiled down: as §1

Experiment [4] addresses T1, Human IL2Rγ extracellular domain …. Kind of experiment: SPR, captured mAb, 37C, dissociation pH 7.4. The method, boiled down:
as §1

The target is the same in experiment [5]. In words: SPR, captured mAb, 25C, dissociation pH 6.0. The method, boiled down:
as §1

The target of experiment [6] is T2, Macaca fascicularis IL2Rγ extracellular …. In words: SPR, captured mAb, 25C, dissociation pH 6.0. A digest of the protocol: as §1
In experiment [7] the target is T3, Human IL2Rγ extracellular domain expressed with a C-terminal myc-myc-hexahistidine tag (human).
T3 construct: also called hIL-2Rg-MMH; hIL-2RG-MMH
T3 chain: T1 chain
In words: SPR Biacore 4000, mAb captured by anti-hFc, HBS-ET, 25C. On the procedure:
(§2) Equilibrium dissociation constants (KD values) for IL-2Rγ binding to purified anti-IL2Rγ monoclonal antibodies were determined using a Biacore 4000 instrument equipped with a real-time surface plasmon resonance biosensor. All binding studies were performed in 10 mM HEPES, 150 mM NaCl, 3 mM EDTA, and 0.05% v/v Surfactant Tween-20, pH 7.4 (HBS-ET) running buffer at 25° C. and 37° C. The Biacore sensor surface was first derivatized by amine coupling with a monoclonal mouse anti-human Fc antibody (GE, # BR-1008-39) to capture anti-IL2Rγ monoclonal antibodies.
(§3) The dissociation of monoclonal antibody bound IL2Rγ reagents were monitored for 8-10 minutes in HBS-ET running buffer. Kinetic association (kₐ) and dissociation (kd) rate constants were determined by fitting the real-time sensorgrams to a 1:1 binding model using Scrubber 2.0c curve fitting software. Binding dissociation equilibrium constants (KD) and dissociative half-lives (t_{1/2}) were calculated from the kinetic rate constants as: […]

Experiment [8] deals with T4, Macaca fascicularis IL2Rγ extracellular domain expressed with a C-terminal myc-myc-hexahistidine tag (Macaca fascicularis).
T4 construct: also called mfIL-2Rg-MMH; mfIL-2RG-MMH
T4 chain: T1 chain with T14A, A16T, T22S, H141R, T228S
The experiment is described as above. On the procedure:
as §2, §3

Experiment [9] has as its target T3, Human IL2Rγ extracellular domain …. In words: SPR Biacore 4000, mAb captured by anti-hFc, HBS-ET, 37C. On the procedure: as §2, §3
Experiment [10] deals with T4, Macaca fascicularis IL2Rγ extracellular …. Kind of experiment: SPR Biacore 4000, mAb captured by anti-hFc, 37C, dissociation in PBS-T pH 7.4. On the procedure: (§4) The dissociation rate constant (kd) for binding of IL-2Rγ reagents to purified anti-IL2Rγ monoclonal antibodies was determined using a real-time surface plasmon resonance based Biacore 4000 biosensor platform. […] The CM5 Biacore sensor surface derivatized by amine coupling with monoclonal mouse anti-human Fc antibody (GE, Catalog # BR-1008-39) was used to capture anti-IL2Rγ monoclonal antibodies expressed with human IgG4 Fc. All the IL2Rγ reagents were expressed with a C-terminal myc-myc-hexahistidine tag (subsequently referred to with a -MMH suffix). […] The dissociation of bound IL-2Rg-MMH was performed in PBS-T-pH7.4 or PBS-T-pH6.0 running buffers for 6 minutes.
(§5) Dissociation rate constants (kd) in two running buffers were determined by fitting the real-time binding sensorgrams to a 1:1 binding model using Scrubber 2.0c curve-fitting software. Values of dissociation rate for […] mAb binding to hIL-2RG-MMH and mfIL-2RG-MMH at 25° C. and 37° C. in PBS-T-pH7.4 and PBS-T-pH6.0 is shown in Table 2-1 through Table 2-8.

Experiment [11] shares this target. Kind of experiment: SPR Biacore 4000, mAb captured by anti-hFc, 37C, dissociation in PBS-T pH 6.0. As to the method: as §4, §5

Changes are numbered by the printed parent chain.

B1: H4H12926P2 (antibody, human IgG4 S228P, kappa, V domains shown)
VH: QVQLQQSGPGLVKPSQTLSLTCAISGDSVSSNIAAWNWIRLSPSRGLEWLGRTFFRSTWFYDYSLSVKGRITINPDTSKNQFSLHLNSVTPEDAAVYYCARTGRRWSLDYWGQGTLVTVSS
VL: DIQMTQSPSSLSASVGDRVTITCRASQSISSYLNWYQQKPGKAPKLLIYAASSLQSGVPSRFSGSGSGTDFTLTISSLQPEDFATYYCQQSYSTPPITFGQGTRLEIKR
notes: anti-IL2Rgamma mAb expressed with human IgG4 Fc
In general, koff refers to a measure of how fast the partners let go of each other. Low values mean slow dissociation, high ones fast dissociation. In the case of B1, the “100 nM Ag Bound (RU)” value was 14 RU in experiment [1]; 29 RU in experiment [2]; 43 RU in [3]; 14 RU in [4]; 24 RU in experiment [5]; 32 RU in experiment [6]. Further, the koff in [1] came to 0.0312 s⁻¹; in experiment [2], 0.0133 s⁻¹; in experiment [3], 0.00782 s⁻¹; in experiment [4], 0.0308 s⁻¹; in experiment [5], 0.0297 s⁻¹; in experiment [6] it was 0.0185 s⁻¹. In addition, the “t1/2” value is 0.4 min in experiment [1]; 0.9 min in experiment [2]; 1.5 min in [3]; 0.4 min in experiment [4]; 0.4 min in [5]; 0.6 min in experiment [6].

B2: H4H13538P (antibody, human IgG4 S228P, kappa, V domains shown)
VH: EVQLVESGGGLVQPGGSLGLSCAASGFTFSNYAMSWVRQAPGKGLEWVSAVSGGGGGTYYADSVKGRFTISRDNSKNTVLLQMNSLRAEDTAVYYCARGRTGGLDYWGPGTLVTVSS
VL: DVVMTQSPLSLPVIFGQPASISCRSSQSLVDSDGNTYLNWLQQRPGQSPRRLIYEVSNRDSGVPDRFSGSGSGTDFTLTISRVEAEDVGIYYCMQGTRWPPTFGGGTKVEIKR
notes: anti-IL2Rγ monoclonal antibody expressed with human IgG4 Fc
As usually defined, the Kd is the equilibrium constant for the complex coming apart. A higher Kd goes with a looser complex. By kon is commonly meant the second-order rate constant of association. A higher kon goes with faster complex formation. Regarding B2, in experiment [7], the “100 nM Ag Bound” value worked out at 68 RU, the Kd worked out at 1.02 nM, the koff was determined as 0.000227 s⁻¹ and the kon stood at 222000 M⁻¹ s⁻¹. In [7], this molecule registered a t1/2 of 51 min. For the same molecule, in [8], the “100 nM Ag Bound” value is 81 RU, binding was characterised by a dissociation constant (Kd) of 2.28 nM, the koff is 0.000304 s⁻¹ and the on-rate constant (kon) turned out to be 133000 M⁻¹ s⁻¹. In [8], this molecule displayed a t1/2 of 38 min. In experiment [9], the “100 nM Ag Bound” value worked out at 99 RU, the Kd was 3.4 nM, the koff was 0.00108 s⁻¹ and the kon was found to be 319000 M⁻¹ s⁻¹. For the same molecule, the t1/2 in experiment [9] was found to be 11 min. Further, in experiment [10], the “100 nM Ag Bound (RU)” value came to 119 RU, the koff was found to be 0.00051 s⁻¹ and the t1/2 worked out at 23 min. For the same molecule, in [11], the “100 nM Ag Bound (RU)” value came to 122 RU, the off-rate (koff) turned out to be 0.00139 s⁻¹ and the t1/2 was 8 min.

B3: H4H13544P2 (antibody, human IgG4 S228P, kappa, V domains shown)
VH: QLQLQESGPGLVKPSETLSLTCTVSGGSISIKNYYWGWIRQPPGKGLEWIGSIYYSGTTYYNPSLKSRVTISVDTSKNQFSLKLSSVTAADTAVYHCARHGYSYGHGWFDPWGQGTLVTVSS
VL: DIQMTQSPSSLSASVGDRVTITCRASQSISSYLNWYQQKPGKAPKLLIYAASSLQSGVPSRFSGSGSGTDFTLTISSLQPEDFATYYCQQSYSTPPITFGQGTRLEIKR
notes: as for B2
Take B3: in experiment [7], the “100 nM Ag Bound” value is 51 RU, binding was put at a Kd of 28.7 nM, the koff is 0.00135 s⁻¹ and the kon worked out at 47200 M⁻¹ s⁻¹. This molecule displayed a t1/2 in [7] of 9 min. Further, in [8], the “100 nM Ag Bound” value is 60 RU, the Kd is 24.6 nM, the koff amounted to 0.00127 s⁻¹ and the kon was determined as 51700 M⁻¹ s⁻¹. Further, the t1/2 in experiment [8] was 9 min. For the same molecule, in experiment [9], the “100 nM Ag Bound” value was 49 RU, the Kd amounted to 103 nM, the koff worked out at 0.00782 s⁻¹ and the kon was 76000 M⁻¹ s⁻¹. Besides, in experiment [9], the t1/2 is 1.5 min. Also, in [10], the “100 nM Ag Bound (RU)” value was 58 RU, the koff stood at 0.00362 s⁻¹ and the t1/2 is 3.2 min. Moreover, in [11], the “100 nM Ag Bound (RU)” value came to 43 RU, the koff came to 0.00781 s⁻¹ and the t1/2 was determined as 1.5 min.

B4: H4H12924P2 (antibody, human IgG4 S228P, kappa, V domains shown)
VH: EVQLVESGGGLVQPGRSLRLSCAASGFTLEDYAMHWVRQAPGKGLEWVSGISWNRGSTGYADSVKGRFTISRDNAKNSLYLQMTSLRAEDTALYYCAKGFYSMDVWGQGTTVTVSS
VL: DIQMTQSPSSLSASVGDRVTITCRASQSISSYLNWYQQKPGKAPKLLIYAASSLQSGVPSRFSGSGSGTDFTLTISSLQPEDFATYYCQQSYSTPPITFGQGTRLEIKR
notes: as for B1
As for B4, the “100 nM Ag Bound (RU)” value in experiment [1] was found to be 133 RU; in [2], 124 RU; in experiment [3], 130 RU; in [4] it was 133 RU; in experiment [5], 136 RU; in [6] it was 131 RU. Further, the koff in experiment [1] came out at 0.0143 s⁻¹; in [2] it was 0.000479 s⁻¹; in [3], 0.000385 s⁻¹; in experiment [4], 0.00302 s⁻¹; in experiment [5] it was 0.00367 s⁻¹; in experiment [6] it was 0.00305 s⁻¹. The “t1/2” value in [1] came out at 0.8 min; in experiment [2] it was 24 min; in [3] it was 30 min; in experiment [4], 4 min; in [5] it was 3 min; in experiment [6], 4 min.

B5: H4H13541P (antibody, human IgG4 S228P, kappa, V domains shown)
VH: EVQLVESGGGVVRPGGSLRLSCAASGFIFDDYDMSWVRQPPGRGLEWVSGIDWFGGTRGYADSMKGRFTISRDNAKNSLYLQMNSLRVEDTAFYYCARGGAIVGAVTPFDYWGQGTLVTVSS
VL: DIQMTQSPSSLSASVGNRVTLSCRASQSINTYLSWYQQRPGKAPKLLIYAASSLQSGVPSRFSGSGAGTDFTLTISSLQPEDFATYYCQQSYSAPLTFGGGTKVEIKR
notes: as for B2
Turning to B5, in experiment [7], the “100 nM Ag Bound” value was determined as 72 RU; the affinity, expressed as Kd, was 2.41 nM; the koff is 0.000252 s⁻¹; the kon turned out to be 105000 M⁻¹ s⁻¹. The t1/2 in experiment [7] is 46 min. For the same molecule, in experiment [8], the “100 nM Ag Bound” value came out at 82 RU, the Kd was 1.85 nM, the koff worked out at 0.000315 s⁻¹ and the kon turned out to be 170000 M⁻¹ s⁻¹. In experiment [8], this molecule yielded a t1/2 of 37 min. In addition, in experiment [9], the “100 nM Ag Bound” value amounted to 103 RU, the Kd came out at 5.01 nM, the koff was 0.00078 s⁻¹ and the kon stood at 156000 M⁻¹ s⁻¹. Moreover, in experiment [9], the t1/2 stood at 15 min. Besides, in experiment [10], the “100 nM Ag Bound (RU)” value was found to be 100 RU, the koff turned out to be 0.000512 s⁻¹ and the t1/2 was found to be 23 min. Also, in experiment [11], the “100 nM Ag Bound (RU)” value stood at 91 RU, the koff amounted to 0.0015 s⁻¹ and the t1/2 worked out at 8 min.
